Reference: publication PMC7010609 (2020)

T1: Xenopus laevis StrepII-FANCD2
T1 chain: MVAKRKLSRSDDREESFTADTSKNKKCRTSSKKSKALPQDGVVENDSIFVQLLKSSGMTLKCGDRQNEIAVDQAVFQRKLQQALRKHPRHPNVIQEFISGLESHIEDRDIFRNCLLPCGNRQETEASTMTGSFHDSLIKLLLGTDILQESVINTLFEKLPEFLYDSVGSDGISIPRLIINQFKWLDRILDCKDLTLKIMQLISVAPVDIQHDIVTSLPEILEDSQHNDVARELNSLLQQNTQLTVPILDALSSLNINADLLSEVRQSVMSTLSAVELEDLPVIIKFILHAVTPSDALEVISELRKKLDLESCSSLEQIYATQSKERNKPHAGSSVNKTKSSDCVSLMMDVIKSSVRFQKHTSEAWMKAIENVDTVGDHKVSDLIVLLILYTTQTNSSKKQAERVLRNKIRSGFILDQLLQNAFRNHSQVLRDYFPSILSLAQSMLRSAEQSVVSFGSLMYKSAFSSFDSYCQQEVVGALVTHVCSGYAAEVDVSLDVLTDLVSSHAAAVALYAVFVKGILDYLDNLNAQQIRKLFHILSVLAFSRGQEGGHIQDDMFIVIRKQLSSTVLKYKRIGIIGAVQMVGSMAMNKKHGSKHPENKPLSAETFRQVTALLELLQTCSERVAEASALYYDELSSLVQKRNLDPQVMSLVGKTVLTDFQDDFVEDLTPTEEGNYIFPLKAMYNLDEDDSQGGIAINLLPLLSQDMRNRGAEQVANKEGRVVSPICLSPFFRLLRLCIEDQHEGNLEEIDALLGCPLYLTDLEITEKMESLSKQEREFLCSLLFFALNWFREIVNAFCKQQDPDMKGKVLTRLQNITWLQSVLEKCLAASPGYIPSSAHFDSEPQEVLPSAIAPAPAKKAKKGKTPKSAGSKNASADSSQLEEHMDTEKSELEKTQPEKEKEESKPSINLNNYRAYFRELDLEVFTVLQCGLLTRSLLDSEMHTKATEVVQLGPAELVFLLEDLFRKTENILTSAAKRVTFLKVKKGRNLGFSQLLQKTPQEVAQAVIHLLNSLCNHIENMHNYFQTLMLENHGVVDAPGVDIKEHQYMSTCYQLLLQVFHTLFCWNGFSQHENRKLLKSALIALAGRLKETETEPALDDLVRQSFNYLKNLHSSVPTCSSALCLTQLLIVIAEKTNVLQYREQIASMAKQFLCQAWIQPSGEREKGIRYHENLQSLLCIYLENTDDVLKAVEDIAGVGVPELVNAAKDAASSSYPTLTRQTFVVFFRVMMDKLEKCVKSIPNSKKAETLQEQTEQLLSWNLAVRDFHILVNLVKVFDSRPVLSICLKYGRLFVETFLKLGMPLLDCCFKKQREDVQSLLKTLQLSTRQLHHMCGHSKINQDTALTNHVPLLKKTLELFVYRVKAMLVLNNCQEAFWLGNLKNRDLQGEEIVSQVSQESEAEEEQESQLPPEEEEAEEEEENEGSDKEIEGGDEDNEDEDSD

T2: Xenopus laevis StrepII-FANCD2 (Xenopus laevis)
T2 chain: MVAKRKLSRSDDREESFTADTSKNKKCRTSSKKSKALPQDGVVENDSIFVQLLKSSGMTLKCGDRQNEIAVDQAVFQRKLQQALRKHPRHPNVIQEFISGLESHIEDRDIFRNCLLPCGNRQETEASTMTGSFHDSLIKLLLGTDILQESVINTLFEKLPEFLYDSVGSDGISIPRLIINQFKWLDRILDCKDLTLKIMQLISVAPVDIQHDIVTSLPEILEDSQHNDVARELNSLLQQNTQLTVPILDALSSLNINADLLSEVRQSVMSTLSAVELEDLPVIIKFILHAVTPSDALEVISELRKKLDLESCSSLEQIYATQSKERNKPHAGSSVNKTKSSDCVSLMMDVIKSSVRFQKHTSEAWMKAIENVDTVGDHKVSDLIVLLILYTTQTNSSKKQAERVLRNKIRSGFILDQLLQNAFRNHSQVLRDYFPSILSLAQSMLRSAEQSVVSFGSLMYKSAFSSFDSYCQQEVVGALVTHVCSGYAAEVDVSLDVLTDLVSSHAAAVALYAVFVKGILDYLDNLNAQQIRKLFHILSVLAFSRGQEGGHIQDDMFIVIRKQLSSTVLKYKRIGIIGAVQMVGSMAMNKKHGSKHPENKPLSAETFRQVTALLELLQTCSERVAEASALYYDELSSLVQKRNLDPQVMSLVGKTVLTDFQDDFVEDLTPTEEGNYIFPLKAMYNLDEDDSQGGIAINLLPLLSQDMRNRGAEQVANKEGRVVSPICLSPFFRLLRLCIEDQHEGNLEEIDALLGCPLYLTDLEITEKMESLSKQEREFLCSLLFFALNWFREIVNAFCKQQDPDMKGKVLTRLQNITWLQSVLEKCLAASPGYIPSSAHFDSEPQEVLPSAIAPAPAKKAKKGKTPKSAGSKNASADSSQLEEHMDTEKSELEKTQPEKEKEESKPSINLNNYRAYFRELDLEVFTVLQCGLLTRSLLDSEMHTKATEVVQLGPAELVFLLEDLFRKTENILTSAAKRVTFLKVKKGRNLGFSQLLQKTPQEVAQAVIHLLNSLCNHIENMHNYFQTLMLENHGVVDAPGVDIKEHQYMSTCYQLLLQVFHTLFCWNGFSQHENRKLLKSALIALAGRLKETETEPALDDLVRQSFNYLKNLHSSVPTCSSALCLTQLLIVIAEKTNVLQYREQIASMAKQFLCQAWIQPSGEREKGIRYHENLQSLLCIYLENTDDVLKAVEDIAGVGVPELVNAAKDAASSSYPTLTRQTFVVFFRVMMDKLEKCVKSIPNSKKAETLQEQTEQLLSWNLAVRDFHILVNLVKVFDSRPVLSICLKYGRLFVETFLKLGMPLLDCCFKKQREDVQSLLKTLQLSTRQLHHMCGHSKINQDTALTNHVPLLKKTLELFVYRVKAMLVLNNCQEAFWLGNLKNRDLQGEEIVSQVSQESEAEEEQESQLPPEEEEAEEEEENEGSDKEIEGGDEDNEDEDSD


Assays:
Assay in all cases: Biolayer interferometry (BLItz)
[1] = target: Xenopus laevis StrepII-FANCD2; details: StrepII-FANCD2-loaded biosensors in 20 ng/mL solution; FANCI 62.5-1000 nM
[2] = target: T1, Xenopus laevis StrepII-FANCD2; details: chain shown with the change; StrepII-FANCD2-loaded biosensors in 20 ng/mL solution; FANCI 62.5-1000 nM
[3] = target: T2, Xenopus laevis StrepII-FANCD2; details: StrepII-FANCD2-loaded biosensors in 20 ng/mL solution; FANCI 62.5-1000 nM

Molecule	kon [1] [M⁻¹ s⁻¹]	Kd [2] [µM]	koff [2] [s⁻¹]	kon [3] [M⁻¹ s⁻¹]
Xenopus laevis Flag-FANCI wild type S557D; S560D; S566D; S597D; S618D; S630D	39000	–	–	–
Xenopus laevis Flag-FANCI wild type S557A; S560A; S566A; S597A; S618A; S630A (protein) MDQKILSLAAEEQNDGLQSYLQNLKETELSEIITKHAVKGKDCGALLRGVFKGSPCSHDVAVRRRLAVYRHCIQLVESGDLQREVASEIMGLLMLEVHHFPGASLIELANLFADAVKAGTLSNGKSLDLFPTVLTALSSKESLAYGKGELTGEEFKKQLINSLCSSRWDPQSVIFLTSMFRDVSLSAEELQFVVEKVLRMLSKLDLQEMPPLVYQLLLLSAKGSKKNIVEGIITIFNDLDQKQLVQQENSESLDLEDATIPQDQLHHVEGTIILHIVFAIKLDQELGRELLKYLKAGQQGDSSKILCPFSAALLLSVSRIHRFQEQVFDFLKSTILRDYKDLQFHQSSKFLQDLVPQPVCVSSILLETVKNSVYGWDHVTQGLVELGFILMDSFGPKAAFGNKVVELISVHSRTPSQQACQLGSRILLETFKVHEPIRSEILEQVLNRVITKAATPVTHFIDLLSDIVVSAPLILQNSSSKVTEAFDHLSFLPLTTVQGLLKAVQPLLKISMSMRDSLILVLRKAMFSSQIDARKSAVAGFLLLLRNFKVLGSLSSAQCAQAIGAAQIQVDVHMRYNAAANEAFCLEILGSLRRCLAQQADVRLMLYEGFYDVLRRNAQLASSVMQTLLAQLKRYYEPEPDLLPPLKLEGCITAQGDHIFLQEPLAHLLCCIHHCLQWYKSSLQQHRNPDEDDDDDDQTGCQQDLNDIMESITRRMIKCDLEDFELDKSADFSLASGVGVKNNIYAVLVMGICEVLIEYNFIIANFSKSKFEDILGLFKCCSKLSDILKEKAAKGRQPGNNKTARSLISMTFVSTLLTALFRDSTRSHEESLSILRANVDFMRYSVCVALQKIQQLEETGVTDGPDGQNSEKMFRSLCEITRVLMWRYTSIPAAAENPGKKDKGKTISLLCLEGLLRVFNTVQQRYPSKIPQFLTALDALGDEDEEGSREINVTEKAAFQIKQFQRSLINQLSGGEDDFNSKEALLLVSILSTLSRLLAPSSQQFVQMLSWTVKICKETNIEDVQFCKGIMNLLFSLHVQFKSPVSVLRELCQDIHGHLGDIDQDIEVEKQSHFATVSLKTAAPTVTLLVLGQAAKVLEEVDWLIIKLKGLLGSEKLSTEDLTQTSNARVPIEKAIILQLGTLLTACHELVQTALPAGSCTDTLLKELAKMYTILTSVVKYYLQICSSHGGQISARLEKLVKLSGSHLTPQCYAFITYVQNIHSESLSLAAEKKKKKKEEALTVTSAKILRDTKPIPNLIFAIEQYEKFLIHLSKKSKVNLMQYMKLSTSRDFRINAATLDAALQEKGSEDEENEPDNEQAVTEEESQEPKKKRRRK	–	0.0101	9e-05	11000
